{
  "source": "the DeepSol protein solubility set",
  "data": [
    {"test": "soluble on expression in E. coli; label from the status in PepcDB or PDB records", "values": [
      {"sequence": "MGSDKIHHHHHHMNFIKTISPIQKINFNGFEFYIKRDDLLGEINGNKARKLAFYIHQRYPKNQSFVSYGGSQSNALAALSIFAKQRSYKLVFACEKISTFLKNNPCGNYALALENGVDFVENIHSLSLKQFALSLCKKDDVFIEQGIANLEAQYGYMELAQEIQMQSQSLKLDFDIFLPSGTGTSAAFLAKYSKFKVFTCACVGDIKYLKKQILTLDPSYDFSNLEFLTSDKKYHFAKPYKEFYELYMDLKLKCNIEFDLLYDILGLSIALKQEWKKPLLYIHQGGILGNSTMLERYKFKKSV", "soluble on expression in E. coli": "not soluble"},
      {"sequence": "MSRPPLPPFTRETATQKVRMAEDAWNSRDPARVSLAYTPDSRWRNRAEFLQGRDAIVEFLTRKWAKEHDYRLIKDLWAFDGRFIAVRFQYEWRDEAGLWYRSYGNEQWEFDDDGLMRRREASINDVAISEGDRRFHWPAPGPRPDDVPGLAADPFLEHHHHHH", "soluble on expression in E. coli": "soluble"},
      {"sequence": "MAVPPAYADLGKSAKDIFSKGYGFGTVKLDLKTKSQSGVEFTTGGSSNTDTGKAAGNLETKYKVKELGLSLNQKWNTDNVLTTEVTLEDQLAKGLKLGLDTSFVPNTGKKSAKLKTGYKREYMNVGCDLDFDLAGPTVHAAAVLGYEGWLAGYQMAFDTAKSKLAQNNFALGYKAGDFQLHTNVNDGTEFGGSIYQKVNGQLETAVNLAWTAGSNNTRFGIAAKYQLDKDSSVSAKVNNASLVGVGYTQSLRPGVKLTLSALIDAKNFNAGGHKVGMGFELEV", "soluble on expression in E. coli": "not soluble"},
      {"sequence": "MSAFFLNMEKSIITQKIIAKAFKDLMQSNAYHQISVSDIMQTAKIRRQTFYNYFQNQEELLSWIFENDFAELINDNSDYYGWQNELLLLLRYLDENQIFYQKIFVIDKNFEHFFLIQWENLLDKVIFDQEKKSDYHWSDLEKSFICRYNAAAICAITRESIIRGNSLEKLYSQIVNLLLAQIKIFESLEHHHHHH", "soluble on expression in E. coli": "soluble"},
      {"sequence": "MIKSYKIRGTSLTVNRSDSYPDACNWTADSFGMLFYDPEYDLSTESLSITLDAGNDWVPEGGLVYESLPVKVTYENPEMMDYGTDWFNQGYSALGWNGEEYAYLGTDRGIVNILLEEDEKILYPNEEYDLKEGYTLKVTDLASDKACLTLSRNKLPVYSSIISPGKSADLGTHTFLYKKELNGVEVPLFSVYVDSVIQGDELSAVNLKHLLHFSDSPLELNYGKEYGELTIVETYPKLRLENKHVVWSGSDINVTEDIWIGRFEKKTAGNLFVTFYPYMNKVENVRSILPSVSSWSIPAMSIEEYLIGVLEHHHHHH", "soluble on expression in E. coli": "not soluble"},
      {"sequence": "PTSAPQHLTVEDVTDTTTTLKWRPPDRIGAGGIDGYLVEYCLEGSEEWVPANKEPVERCGFTVKDLPTGARILFRVVGVNIAGRSEPATLLQPVTIRE", "soluble on expression in E. coli": "soluble"},
      {"sequence": "LTLGSISLTAFIMGVVFWGGFNTALEATNTEEFCIGCHSMESKPYQELQKTVHWSNHSGVRATCPDCHVPHSWGRKIARKMEASSDVWGWVFNTVNTSEKFEDKRLEMASREWARFERDDSLACKNCHNYDSMKWDTMSKLAQKQMKRAAEKDQSCVDCHKGIAHILPDMGTARAPQLIAEVGTGPSKFTNEQYYFSALTKPLFFSAKGDVEAGTLNVATKVKILESKENRVKVSISGWRKQIGAGRVIYYDFGINMLTAQLSKEAAKTEGVINGFEEKEDEMTGLKWQRVETTLWTDAEYLITEQQPLWDYARTTFRSSCSVCHTQPDEAHFDA", "soluble on expression in E. coli": "not soluble"},
      {"sequence": "MMQVLTRPPSGMPALVLNADFRPLSYYPLSLWPWQEVIKAVFLDRVDVVASYDQVIHSPSCEMRLPSVVALKQYVPQERPPAFTRFNLFLRDSFSCQYCGSPEDLTFDHVIPRSRGGRTTWENIVTACAPCNLSKGGRTPREAGMQPFHTARRPSMYELQERGRRFPPGRLHVSWLDYLYWDIELEALEHHHHHH", "soluble on expression in E. coli": "not soluble"},
      {"sequence": "GPGSMWALTCRPIQNTEALQLMERYKAHNALQSNQWLLPRHLACFAVRPLYPAQLVLPTSSVIRLPLSAVPFSSLPLSRKREVFGLYPPPCTPPGSCSLLECSGAAMRWRPASLSECFDAAFVRSDSPSSHQHLLCATDCAGSVTVAEEVTVFNAQETNNPFLVDADLVHRNLLTKEAYEHSIGSSLTTIAAQFRYTSFEWVEATAAAAVGLRVRSSAAPHLVNCVDMLRVVHISQLPYTRQQELVAEIPRMTLIKSMTISYIFYHTRWRHHKSMELMRPLLHSNIPCCDTPQAQALQPLLWIAVDLDMEFRGPVMECARHSRTQFYNSQQLEVDTCAVPSRS", "soluble on expression in E. coli": "soluble"},
      {"sequence": "MAHHHHHHMERYESIAERAGFARSQVLPRGSGGSSSASVCYENAANYLQHARGADYATASCSVPVDIWDALCQGEASVLRVGQLGEGRQRLIAYESCTTSSHSGDLSSRLASLEKSLDKLLSEFPKTAEELVTLDYNASLCSAAARSVLTAVPSFLSISGLLRTINNKLCSLDGFSREVLPLMRCDDDVSRQCLLVAGRLDTLEEKLRTTEALVAALGHTSAASNAIFERIGARYGETTRAATM", "soluble on expression in E. coli": "not soluble"},
      {"sequence": "MGSDKIHHHHHHMRKEKLYTGCLLLMALITGSCSEEENPEVRPATKPAEPYTSYYYYSYEAARQLSATDFALAEGQFTPGPTYIKGDTLFVANIQSGAFSLELYDRNKNRHLASLKSWKYKEAEQKFPDKIEAIGISGNRLYLANISSRIDVFDVRTLEFITRIGTGNWGDGINQMVHSHAMAITPDGNIMIRTKKNLLVYREADVTLENYQKVPFYCRSKGDGMDVNNGFHSHQMVQDSTGIVYLADFGQYGNQKIQAIDTTLIEKGDQKILIDTEKTLPLSFNPCGIALHENRMILSAQNGSLFIYDRTKGNWENSFKSVKGYTFKKPEKLLVDQNTLWVSDVNAQKLVEVKIYKNEIREY", "soluble on expression in E. coli": "not soluble"},
      {"sequence": "MVKETEYYDILGIKPEATPTEIKKAYRRKAMETHPDKHPDDPDAQAKFQAVGEAYQVLSDPGLRSKYDQFGKEDAVPQQGFEDASEYFT", "soluble on expression in E. coli": "not soluble"},
      {"sequence": "MAKENYSDPNGKLLNSITTFEVNGEEVKLSGNIIRDYLVSGNAEVTDQEIIMFLQLCKYQKLNPFLNEAYLVKFKNTKGPDKPAQIIVSKEAFMKRAETHEQYDGFEAGIIVERNGEVVEIEGAVSLDKDKLLGGWAKVFRKDRSRPVSVRISEREFNKRQSTWNAMPLTMMRKTAVVNAMREAFPDNLGAMYTEEEQGSLQNNETSVQEEIKQNANTEMLDIPAQQIEVPDFKEIREPEHVEMPPIYDEQPSTPPARPY", "soluble on expression in E. coli": "not soluble"},
      {"sequence": "MGSDKIHHHHHHMNSLSFDFSDDFRPLAAKMRPRCLADYIGQSHLLGKDKPLRRAIEAGYAHSMILWGPPGTGKTTLAEIIAQHFDAEVERLSAVTSGVKEIREAIEQAKYNRQAGRKTLLFVDEVHRFNKSQQDAFLPYIEDGTVIFIGATTENPSFELNNALLSRARIYLLKPLQADEIEQILQNALQDKQNGLGQEHFILADEVLKLLADYVNGDARYALNCLALMADMAESSPQGKVLNQALLIAVLGERNARFDKGGDHYYDLISALHKSIRGSAVDAALYWYARILTAGGDPLYVARRLLAIASEDIGNADPRAMQIAISAWDCYSRVGAYEGERAIAQAVIYLAVAPKSNAVYQAFNQAKQLAKQAKDYDVPLHLRNAPTALMKSLAYGEEYRYAHNEANAYAAGENYFPEQLQDTQFYFPTERGMEKQIKEKLAWLKMQDHASEQQRYKR", "soluble on expression in E. coli": "not soluble"},
      {"sequence": "MSLGLDNLYRVLDANVNRTSEGLRVLEDLARFCYNDRLLSKRIKELRHSVRKNIAGLVPNLISSRDSVNDVGLKTSMEMDIDRKASLLDLARANFKRVQEALRTVEESLKVLNENDLSKFYESCRFETYSIEKEYFKVLTFENKKGRLNEIITGLYCITSEEHSKGRSNIEVVEKMIKAGVKIIQYREKKKSLLEKYNECKKIREMTLDSGVTFIVNDNIDIAMMVKADGVHIGQDDLPIEKVRELVGDEMIIGISTHSPTQAEDAVRRGADYIGVGPLYRTYTKEDVCEPVGLEYLDYVVKNINIPYVAIGGIKEHNMDEVLARGARCIAMVTEIVGADDIEEKISKVKSKFSRGEGHHHHHH", "soluble on expression in E. coli": "soluble"},
      {"sequence": "MGSDKIHHHHHHMPFVRLDVRRPGHADRIVYVPVTTRTSYLLKSSEGGMVLRFDRGDVVAARVRPLNIGDVGALLSRRRRHKRFQLPLGRGAVLQPLLHISGPEGRELARALGSLAGWGFGTASDNLQKTLSRHFNGPQAEAPERLPTVEPKIAVALHLHYPDLWPEFEALLEATGRQFQLFLTLTRPDAALAQRVQARFPGAEITVYENRGRDVGPFIQLLREGKFDPFDLICKLHGKKSGQSGPRMVLGEIWRQVSAFDLIGSRGVVDRIIANFERSPDTQMIGSRRFRLPNEWKGEKSAWGENRAMALNLLETMGMPSSSRLDFFAGTMFWVRRGALEPLRRLDLPLAAFPEETGQQDGTLQHALERVLGMICTKIGVASDGDMTTDSREADPIG", "soluble on expression in E. coli": "not soluble"},
      {"sequence": "QAMKELSKSDRTRQFIIESTAPVFNVKGLAGTSLTDLTEATNLTKGSIYGNFENKEAVAIAAFDYNWGHVKSVLTAKVQACNTYKEMLLVYSSMYNDADGSLFPVGGCPLLNTTIEADDTHDALRKKAGEAILSWKKNLVTIIKKGIQAKEFRPDTDVTKIAFSMIALVEGAILIHRATKNRAYSDYVFESLEDLIAGIEVKKK", "soluble on expression in E. coli": "soluble"},
      {"sequence": "MGSDKIHHHHHHMTTLNSEKVFRDPILGFIHVDDSIILDLINSHEMQRLRRIKHLGVANSVFHGGEQSRFQHSLGVYEISRRMIQALDDNEKFANERHWDHENDLLVQAAALLHDVGHGAYSHTFEHLFDTVHEQFTQKIIVDPSTEVNAILKTVSNDFPERVAAVIGKSYPDKRVVQLISSQLDADRMDYLLRDAYYTGAEYGRYDIERILRLMRPIKDGFAFDIAGVHSIEDYVISRYQMYLQVYFHPVSRGMEVVLENLLIRAQDIFDKDPDNPIFFPIIRPIFALKNKIDIQDYISLDDSVFNTAFNIWQKVDDKILADLSKRFLDRKPLKSIVLNEKTKDLIPSLRKKIKDRGFDPKYYTGENDATDLPYESYSPKTGEEGIKFVYPDGQQVELSKLSPLVEAINGKESIDRRFFFPREMLSNPEINQLYLKYKKTY", "soluble on expression in E. coli": "not soluble"},
      {"sequence": "GSFTMSYCRQEGKDRIIFVTKEDHETPSSAELVADDPNDPYEEHGLILPNGNINWNCPCLGGMASGPCGEQFKSAFSCFHYSTEEIKGSDCVDQFRAMQECMQKYPDLYPQEDEDEEEEREKKPAEQAEETAPIEATATKEEEGSS", "soluble on expression in E. coli": "soluble"},
      {"sequence": "MSLRLQFQLKVDGLEDESLVVRGFEGQESLSDSVWRCEPCYGFRYQVDLASALSNLTAEQFVDQTAHLTILRDGQVVQQINGIVRQLSKGDTGHRHTFYSLTLVPALERLSLRSNSRIFQQQSVPEIISILLQEMGIEDYAFALKRECAQREFCVQYRETDLQFLHRIAAEEGLVYSHLHEAQKHTLLFTDSSDSQPKLAKPVPYNALAGGEINLPYVVDLQFKTTAQVSHTELKDYSFKKPAYGFTQRTQGKDIAYQQPNYEHFDAPGRYKDDANGKAFSQIRLEYLRRDALLADAKSDEPLLLAGVRFDLQDHLDHAMNRDWLVVQANHQGTQPQALQEEGGSGATTYSNQLKLIPAHITWRARPCAKPQVDGPMIATVVGPQGEEIYCDNFGRVKVHFPWDRYSSSNEKSSCWVRVAQEWAGSQYGSMAIPRVGHEVIVSFLNGDPDQPIITGRTYHATNTAPYALPDHKTKTVLRTETEGHHHHHH", "soluble on expression in E. coli": "soluble"},
      {"sequence": "MGSDKIHHHHHHMEQTTQTQLVEIQQVVLRMSKYFVAFCEEHNLTCYFCGGGCIGAIRSQGFIPWDDDLDFFMPRPDYEKLKVLWPKYADTECYPLLVASKTYNDHNSFMTIRDAQTTFIKTYQDGLAIPHGIPIDIFPLDGAPKGNFQRKKQKIWALIYALFCSQVVPEKHGGILATGSRVLLNIFPSKKVRYHIWRFAEKRMTKYSFGSTPYVTELCVGPRYMGNIYHLEDFKSAIFVPFEDTKMPIPVGYKRYLTEVFGDYMQLPPEEDRQPHHEALIVDTKKSYTEYLKK", "soluble on expression in E. coli": "not soluble"},
      {"sequence": "MGSDKIHHHHHHMALASTLATCLNSKNTQYDIIHHPYTLSSMATAEAAHIPGDRLAKTLLLEDEMGYVAAVIPSNHHLHMAALCEQTGRKLVLAHEDEIREVFKDCDLGAIPPVAMAYGMQTYVDDSLMKHPDVYFEAGDHQELVHMSMDQFSSLMSDAEQGHFSRRMM", "soluble on expression in E. coli": "not soluble"}
    ]}
  ]
}
